Laboratory results published in US20200262877A1, “ION CHANNEL-BINDING PEPTIDES AND METHODS OF USE THEREOF” (priority 2017, published 2020).

Experiments:
TRPV1 = target: T1, TRPV1 (Homo sapiens, UniProt Q8NER1); experiment: Ion channel panel (IonWorks Barracuda): TRPV1; format: cell-based; conditions: 100% = no change, <100% = inhibition
T1 construct: host or cells: HEK293 or CHO
How it was run: (§1)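 Peptides were tested in duplicate at final 20 μM and 200 nM, with concentration set by amino acid analysis, in HEPES-buffered saline. They were applied for at least 5 min to HEK293 or CHO cells transfected with each channel. Currents were expressed as % inhibition, 1-(Ipeptide/Icontrol)×100, or % activation, Ipeptide/Icontrol×100, against a channel-matched reference compound.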

Kir2.1 = target: T2, Kir2.1 (Homo sapiens, UniProt P63252); experiment: Ion channel panel (IonWorks Barracuda): Kir2.1; format: cell-based; conditions: 100% = no change, <100% = inhibition
T2 construct: host or cells: HEK293 or CHO
How it was run: as §1

hERG = hERG (Homo sapiens, UniProt Q12809); experiment: in vitro; conditions: 100% = no change, <100% = inhibition
How it was run: as §1

Nav1.5 = Nav1.5 (Homo sapiens, UniProt Q14524); experiment: in vitro; conditions: 100% = no change; for Activity of Nav1.5 with peptide, expressed as a percentage of the reference compound: peptide at 0.2 μM; for Activity of Nav1.5 with peptide (percentage of the reference compound): peptide at 20 μM
How it was run: as §1

Kv2.1 = target: T3, Kv2.1 (Homo sapiens, UniProt Q14721); experiment: cell-based; conditions: 100% = no change, <100% = inhibition
T3 construct: host or cells: HEK293 or CHO
How it was run: as §1

Cav2.1 = target: T4, Cav2.1 (Homo sapiens, UniProt O00555); experiment: cell-based; conditions: 100% = no change, <100% = inhibition
T4 construct: host or cells: HEK293 or CHO
How it was run: as §1

Cav2.2 = target: T5, Cav2.2 (Homo sapiens, UniProt Q00975); experiment: cell-based; conditions: 100% = no change, <100% = inhibition
T5 construct: host or cells: HEK293 or CHO
How it was run: as §1

NR2A = target: T6, NR2A (Homo sapiens, UniProt Q12879); experiment: Ion channel panel (IonWorks Barracuda): NR2A; format: cell-based; conditions: 100% = no change, <100% = inhibition
T6 construct: host or cells: HEK293 or CHO
How it was run: as §1

α3β4 = target: T7, α3β4 (Homo sapiens, UniProt P30926+P32297); experiment: Ion channel panel (IonWorks Barracuda): α3β4; format: cell-based; conditions: 100% = no change, <100% = inhibition
T7 construct: host or cells: HEK293 or CHO
How it was run: as §1

NR2B = target: T8, NR2B (Homo sapiens, UniProt Q13224); experiment: Ion channel panel (IonWorks Barracuda): NR2B; format: cell-based; conditions: 100% = no change, <100% = inhibition
T8 construct: host or cells: HEK293 or CHO
How it was run: as §1

TRPA1 = target: T9, TRPA1 (Homo sapiens, UniProt O75762); experiment: Ion channel panel (IonWorks Barracuda): TRPA1; format: cell-based; conditions: 100% = no change, <100% = inhibition
T9 construct: host or cells: HEK293 or CHO
How it was run: as §1

5HT3a = target: T10, 5HT3a (Homo sapiens, UniProt P46098); experiment: Ion channel panel (IonWorks Barracuda): 5HT3a; format: cell-based
T10 construct: host or cells: HEK293 or CHO
T10 sequence (P46098 whole entry, looked up): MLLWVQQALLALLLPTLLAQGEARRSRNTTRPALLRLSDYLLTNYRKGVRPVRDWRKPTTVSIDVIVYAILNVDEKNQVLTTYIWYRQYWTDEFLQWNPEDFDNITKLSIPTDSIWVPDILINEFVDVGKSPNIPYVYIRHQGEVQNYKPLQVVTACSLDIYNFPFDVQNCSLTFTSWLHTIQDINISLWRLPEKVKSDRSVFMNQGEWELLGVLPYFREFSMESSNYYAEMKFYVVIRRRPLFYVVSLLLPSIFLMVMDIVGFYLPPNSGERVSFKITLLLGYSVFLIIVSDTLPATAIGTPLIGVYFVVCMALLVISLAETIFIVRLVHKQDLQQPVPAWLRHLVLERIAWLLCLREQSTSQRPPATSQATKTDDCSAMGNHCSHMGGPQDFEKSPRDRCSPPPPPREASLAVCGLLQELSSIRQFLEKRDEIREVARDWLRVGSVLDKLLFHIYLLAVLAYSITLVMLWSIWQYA
How it was run: as §1

GABA = experiment: Ion channel panel (IonWorks Barracuda): GABA; format: cell-based; conditions: 100% = no change, <100% = inhibition
How it was run: as §1

Kv1.3 = target: T11, Kv1.3 (Homo sapiens, UniProt P22001); experiment: cell-based; format: cell-based; conditions: 100% = no change, <100% = inhibition
T11 construct: host or cells: HEK293 or CHO
How it was run: as §1

Kv1.2 = target: T12, Kv1.2 (Homo sapiens, UniProt P16389); experiment: cell-based; format: cell-based; conditions: 100% = no change, <100% = inhibition
T12 construct: host or cells: HEK293 or CHO
How it was run: as §1

Kv1.1 = target: T13, Kv1.1 (Homo sapiens, UniProt Q09470); experiment: cell-based; format: cell-based; conditions: 100% = no change, <100% = inhibition
T13 construct: host or cells: HEK293 or CHO
How it was run: as §1

Nav1.7 = target: T14, Nav1.7 (Homo sapiens, UniProt Q15858); experiment: cell-based; format: cell-based; conditions: 100% = no change; for Activity of Nav1.7 with peptide, expressed as a percentage of the reference compound: peptide at 0.2 μM; for Activity of Nav1.7 with peptide (percentage of the reference compound): peptide at 20 μM
T14 construct: host or cells: HEK293 or CHO

α4β2 = target: T15, α4β2 (Homo sapiens, UniProt P17787+P43681); experiment: Ion channel panel (IonWorks Barracuda): α4β2; format: cell-based; conditions: 100% = no change, <100% = inhibition
T15 construct: host or cells: HEK293 or CHO
How it was run: as §1

[1] = first of two Nav1.5 columns (probably TP1)
[2] = second of two Nav1.5 columns (probably TP2)
[3] = first of two Nav1.7 columns (probably TP1)
[4] = second of two Nav1.7 columns (probably TP2)

T14 sequence (Q15858 whole entry): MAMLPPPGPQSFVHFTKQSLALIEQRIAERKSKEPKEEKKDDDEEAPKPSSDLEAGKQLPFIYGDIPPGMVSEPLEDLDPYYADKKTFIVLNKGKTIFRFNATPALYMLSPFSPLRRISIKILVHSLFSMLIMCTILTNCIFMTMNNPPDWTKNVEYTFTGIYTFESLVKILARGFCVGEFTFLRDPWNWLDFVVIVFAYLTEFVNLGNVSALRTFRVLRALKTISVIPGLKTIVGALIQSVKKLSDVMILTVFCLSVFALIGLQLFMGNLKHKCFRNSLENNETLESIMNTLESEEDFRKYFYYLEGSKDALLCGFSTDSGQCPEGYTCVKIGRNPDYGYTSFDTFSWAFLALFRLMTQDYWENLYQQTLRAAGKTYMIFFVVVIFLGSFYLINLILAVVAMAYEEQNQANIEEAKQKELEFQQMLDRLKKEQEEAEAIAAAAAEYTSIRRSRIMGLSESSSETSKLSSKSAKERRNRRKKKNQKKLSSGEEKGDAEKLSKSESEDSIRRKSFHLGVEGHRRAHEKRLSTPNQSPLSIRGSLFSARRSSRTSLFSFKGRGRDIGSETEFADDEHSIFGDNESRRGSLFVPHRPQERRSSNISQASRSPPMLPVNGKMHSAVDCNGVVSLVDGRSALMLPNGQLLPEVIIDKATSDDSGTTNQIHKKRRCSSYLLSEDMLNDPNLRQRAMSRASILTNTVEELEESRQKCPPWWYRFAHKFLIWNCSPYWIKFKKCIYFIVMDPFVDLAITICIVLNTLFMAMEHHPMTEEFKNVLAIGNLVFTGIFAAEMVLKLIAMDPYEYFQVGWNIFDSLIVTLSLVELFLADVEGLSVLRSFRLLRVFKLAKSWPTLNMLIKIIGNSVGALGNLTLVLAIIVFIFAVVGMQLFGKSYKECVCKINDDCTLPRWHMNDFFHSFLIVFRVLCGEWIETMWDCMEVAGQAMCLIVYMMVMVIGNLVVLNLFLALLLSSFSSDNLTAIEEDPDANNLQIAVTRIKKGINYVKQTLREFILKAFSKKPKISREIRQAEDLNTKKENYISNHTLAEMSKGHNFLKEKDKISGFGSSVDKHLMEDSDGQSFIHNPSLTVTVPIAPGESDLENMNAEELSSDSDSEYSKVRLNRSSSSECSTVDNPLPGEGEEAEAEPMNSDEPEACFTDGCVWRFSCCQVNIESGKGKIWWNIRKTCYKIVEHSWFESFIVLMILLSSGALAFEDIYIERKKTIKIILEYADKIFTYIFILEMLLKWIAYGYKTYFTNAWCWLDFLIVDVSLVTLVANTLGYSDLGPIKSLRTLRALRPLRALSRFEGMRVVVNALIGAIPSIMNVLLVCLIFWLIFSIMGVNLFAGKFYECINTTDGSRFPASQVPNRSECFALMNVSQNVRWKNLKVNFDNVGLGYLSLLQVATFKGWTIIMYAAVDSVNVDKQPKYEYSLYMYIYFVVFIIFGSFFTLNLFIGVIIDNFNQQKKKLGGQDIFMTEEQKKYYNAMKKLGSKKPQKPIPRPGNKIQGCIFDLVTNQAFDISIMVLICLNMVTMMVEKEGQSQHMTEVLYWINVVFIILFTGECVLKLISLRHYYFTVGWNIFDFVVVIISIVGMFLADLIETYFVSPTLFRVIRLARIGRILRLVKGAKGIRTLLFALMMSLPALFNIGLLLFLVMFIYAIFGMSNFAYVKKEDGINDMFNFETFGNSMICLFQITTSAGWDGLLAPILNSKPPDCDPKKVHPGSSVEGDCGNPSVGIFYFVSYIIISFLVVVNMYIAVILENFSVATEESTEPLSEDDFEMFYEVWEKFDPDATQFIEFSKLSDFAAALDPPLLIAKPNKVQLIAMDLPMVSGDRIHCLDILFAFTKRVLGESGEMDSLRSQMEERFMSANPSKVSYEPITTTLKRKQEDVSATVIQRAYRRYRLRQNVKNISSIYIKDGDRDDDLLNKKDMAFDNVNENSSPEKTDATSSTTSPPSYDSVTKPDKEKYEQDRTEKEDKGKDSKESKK
Nav1.5, sequence (Q14524 whole entry): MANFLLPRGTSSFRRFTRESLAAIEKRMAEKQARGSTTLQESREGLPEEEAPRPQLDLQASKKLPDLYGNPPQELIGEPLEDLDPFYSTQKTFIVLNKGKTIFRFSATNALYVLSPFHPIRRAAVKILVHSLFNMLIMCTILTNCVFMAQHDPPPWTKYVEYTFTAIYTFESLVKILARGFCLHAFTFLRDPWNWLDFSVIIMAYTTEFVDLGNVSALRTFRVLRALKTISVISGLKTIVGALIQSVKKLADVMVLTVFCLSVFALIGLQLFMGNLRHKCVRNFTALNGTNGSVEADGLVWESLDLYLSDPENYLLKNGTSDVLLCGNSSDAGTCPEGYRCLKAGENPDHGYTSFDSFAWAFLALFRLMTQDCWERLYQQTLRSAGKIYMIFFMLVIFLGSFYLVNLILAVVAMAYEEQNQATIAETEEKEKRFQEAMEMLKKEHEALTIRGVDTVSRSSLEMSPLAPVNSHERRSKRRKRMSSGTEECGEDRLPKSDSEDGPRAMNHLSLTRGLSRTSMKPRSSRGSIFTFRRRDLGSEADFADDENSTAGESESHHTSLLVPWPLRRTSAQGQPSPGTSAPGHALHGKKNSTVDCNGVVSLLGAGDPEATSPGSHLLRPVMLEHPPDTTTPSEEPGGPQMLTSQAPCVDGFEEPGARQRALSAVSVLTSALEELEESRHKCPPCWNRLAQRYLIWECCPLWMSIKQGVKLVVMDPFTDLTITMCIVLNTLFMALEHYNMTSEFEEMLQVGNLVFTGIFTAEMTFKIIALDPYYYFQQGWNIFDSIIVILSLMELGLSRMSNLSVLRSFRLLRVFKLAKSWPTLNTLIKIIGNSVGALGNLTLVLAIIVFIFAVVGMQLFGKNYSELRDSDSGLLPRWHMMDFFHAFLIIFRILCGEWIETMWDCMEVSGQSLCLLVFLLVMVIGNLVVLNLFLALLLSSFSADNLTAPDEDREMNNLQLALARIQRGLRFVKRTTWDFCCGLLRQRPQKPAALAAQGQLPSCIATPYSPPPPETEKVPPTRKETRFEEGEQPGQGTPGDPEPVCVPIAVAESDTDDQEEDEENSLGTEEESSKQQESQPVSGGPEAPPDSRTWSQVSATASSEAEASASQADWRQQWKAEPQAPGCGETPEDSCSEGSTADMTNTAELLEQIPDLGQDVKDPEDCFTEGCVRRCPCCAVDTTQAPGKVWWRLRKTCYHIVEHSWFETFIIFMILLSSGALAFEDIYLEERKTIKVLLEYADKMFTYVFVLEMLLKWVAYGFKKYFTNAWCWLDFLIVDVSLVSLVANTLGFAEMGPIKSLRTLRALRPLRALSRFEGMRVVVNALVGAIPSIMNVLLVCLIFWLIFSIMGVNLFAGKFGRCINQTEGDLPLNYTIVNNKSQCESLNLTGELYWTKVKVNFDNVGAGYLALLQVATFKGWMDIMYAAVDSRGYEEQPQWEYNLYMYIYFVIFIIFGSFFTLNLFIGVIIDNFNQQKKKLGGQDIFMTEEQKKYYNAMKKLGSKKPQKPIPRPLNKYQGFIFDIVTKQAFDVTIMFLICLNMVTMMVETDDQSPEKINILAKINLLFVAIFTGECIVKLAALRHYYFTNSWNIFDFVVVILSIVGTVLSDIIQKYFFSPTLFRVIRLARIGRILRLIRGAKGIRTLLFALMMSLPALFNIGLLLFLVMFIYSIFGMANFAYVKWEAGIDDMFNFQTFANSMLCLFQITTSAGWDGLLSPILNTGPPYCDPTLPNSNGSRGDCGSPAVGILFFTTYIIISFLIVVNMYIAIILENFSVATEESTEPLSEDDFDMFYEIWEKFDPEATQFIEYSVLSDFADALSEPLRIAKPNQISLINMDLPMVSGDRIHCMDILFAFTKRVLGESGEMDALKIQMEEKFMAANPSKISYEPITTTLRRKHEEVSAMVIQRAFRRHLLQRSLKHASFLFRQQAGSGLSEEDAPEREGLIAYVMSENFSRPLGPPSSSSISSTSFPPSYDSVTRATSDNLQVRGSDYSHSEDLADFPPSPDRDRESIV
T11 sequence (P22001 whole entry): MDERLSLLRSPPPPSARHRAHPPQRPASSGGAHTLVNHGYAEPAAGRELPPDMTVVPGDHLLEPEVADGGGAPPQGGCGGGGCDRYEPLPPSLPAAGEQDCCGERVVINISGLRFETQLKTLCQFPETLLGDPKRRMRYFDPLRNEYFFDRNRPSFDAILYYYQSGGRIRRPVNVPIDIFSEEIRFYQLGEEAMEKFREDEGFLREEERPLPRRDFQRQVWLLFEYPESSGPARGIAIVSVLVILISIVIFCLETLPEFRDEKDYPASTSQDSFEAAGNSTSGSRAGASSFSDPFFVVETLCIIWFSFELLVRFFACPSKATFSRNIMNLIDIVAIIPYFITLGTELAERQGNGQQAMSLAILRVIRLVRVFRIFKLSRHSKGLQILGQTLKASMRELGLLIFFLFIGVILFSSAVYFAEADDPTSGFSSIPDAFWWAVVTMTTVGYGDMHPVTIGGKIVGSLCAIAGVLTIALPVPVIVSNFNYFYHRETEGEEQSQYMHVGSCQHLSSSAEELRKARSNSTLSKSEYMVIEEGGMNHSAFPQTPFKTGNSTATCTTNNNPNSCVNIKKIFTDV
T2 sequence (P63252 whole entry): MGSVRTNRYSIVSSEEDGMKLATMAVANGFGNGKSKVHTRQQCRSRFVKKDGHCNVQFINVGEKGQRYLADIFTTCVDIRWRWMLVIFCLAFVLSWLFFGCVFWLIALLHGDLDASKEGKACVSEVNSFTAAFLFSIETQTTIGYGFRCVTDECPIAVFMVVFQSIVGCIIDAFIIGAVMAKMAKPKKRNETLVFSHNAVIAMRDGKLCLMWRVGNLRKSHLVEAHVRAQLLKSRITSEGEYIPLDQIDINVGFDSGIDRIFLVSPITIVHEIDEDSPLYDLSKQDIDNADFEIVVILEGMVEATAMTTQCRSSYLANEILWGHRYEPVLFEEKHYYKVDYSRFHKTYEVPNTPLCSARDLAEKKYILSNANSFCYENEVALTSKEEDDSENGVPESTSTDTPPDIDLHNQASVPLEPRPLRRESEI

## 15 (GSAVCNLKRCQLSCRSLGLLGKCIGDKCECVKHG) [compound 15]
TRPV1; peptide at 0.2 μM
  Activity of TRPV1 with peptide, expressed as a percentage of the reference compound: 124%
TRPV1; peptide at 20 μM
  Activity of TRPV1 with peptide (percentage of the reference compound): 99%
Kir2.1; peptide at 0.2 μM
  Activity of Kir2.1 with peptide, expressed as a percentage of the reference compound: 107%
Kir2.1; peptide at 20 μM
  Activity of Kir2.1 with peptide (percentage of the reference compound): 88%
hERG; peptide at 0.2 μM
  Activity of hERG with peptide, expressed as a percentage of the reference compound: 79%
hERG; peptide at 20 μM
  Activity of hERG with peptide (percentage of the reference compound): 67%
Nav1.5; [1]
  Activity of Nav1.5 with peptide, expressed as a percentage of the reference compound: 90%
  Activity of Nav1.5 with peptide (percentage of the reference compound): 78%
Nav1.5; [2]
  Activity of Nav1.5 with peptide, expressed as a percentage of the reference compound: 91%
  Activity of Nav1.5 with peptide (percentage of the reference compound): 79%
Kv2.1; peptide at 0.2 μM
  Activity of Kv2.1 with peptide, expressed as a percentage of the reference compound: 91%
Kv2.1; peptide at 20 μM
  Activity of Kv2.1 with peptide (percentage of the reference compound): 88%
Cav2.1; peptide at 0.2 μM
  Activity of Cav2.1 with peptide, expressed as a percentage of the reference compound: 106%
Cav2.1; peptide at 20 μM
  Activity of Cav2.1 with peptide (percentage of the reference compound): 86%
Cav2.2; peptide at 0.2 μM
  Activity of Cav2.2 with peptide, expressed as a percentage of the reference compound: 105%
Cav2.2; peptide at 20 μM
  Activity of Cav2.2 with peptide (percentage of the reference compound): 106%
NR2A; peptide at 0.2 μM
  Activity of NR2A with peptide, expressed as a percentage of the reference compound: 97%
NR2A; peptide at 20 μM
  Activity of NR2A with peptide (percentage of the reference compound): 76%
α3β4; peptide at 0.2 μM
  Activity of a3b4 with peptide, expressed as a percentage of the reference compound: 91%
α3β4; peptide at 20 μM
  Activity of a3b4 with peptide (percentage of the reference compound): 86%
NR2B; peptide at 0.2 μM
  Activity of NR2B with peptide, expressed as a percentage of the reference compound: 103%
NR2B; peptide at 20 μM
  Activity of NR2B with peptide (percentage of the reference compound): 88%
TRPA1; peptide at 0.2 μM
  Activity of TRPA1 with peptide, expressed as a percentage of the reference compound: 114%
TRPA1; peptide at 20 μM
  Activity of TRPA1 with peptide (percentage of the reference compound): 76%
5HT3a
  Activity of 5HT3a with peptide (percentage of the reference compound): 74%
  Activity of 5HT3a with peptide, expressed as a percentage of the reference compound: 86%
GABA; peptide at 0.2 μM
  Activity of GABA with peptide, expressed as a percentage of the reference compound: 122%
GABA; peptide at 20 μM
  Activity of GABA with peptide (percentage of the reference compound): 97%
Kv1.3; peptide at 0.2 μM
  Activity of Kv1.3 with peptide, expressed as a percentage of the reference compound: 86%
Kv1.3; peptide at 20 μM
  Activity of Kv1.3 with peptide (percentage of the reference compound): 90%
Kv1.2; peptide at 0.2 μM
  Activity of Kv1.2 with peptide, expressed as a percentage of the reference compound: 77%
Kv1.2; peptide at 20 μM
  Activity of Kv1.2 with peptide (percentage of the reference compound): 76%
Kv1.1; peptide at 0.2 μM
  Activity of Kv1.1 with peptide, expressed as a percentage of the reference compound: 69%
Kv1.1; peptide at 20 μM
  Activity of Kv1.1 with peptide (percentage of the reference compound): 72%
Nav1.7; [3]
  Activity of Nav1.7 with peptide, expressed as a percentage of the reference compound: 91%
  Activity of Nav1.7 with peptide (percentage of the reference compound): 75%
Nav1.7; [4]
  Activity of Nav1.7 with peptide, expressed as a percentage of the reference compound: 97%
  Activity of Nav1.7 with peptide (percentage of the reference compound): 58%
α4β2; peptide at 0.2 μM
  Activity of a4b2 with peptide, expressed as a percentage of the reference compound: 71%
α4β2; peptide at 20 μM
  Activity of a4b2 with peptide (percentage of the reference compound): 95%
